Experimental data: patent publication US20200123254A1 (LENTIGEN TECHNOLOGY, published 2020)
Numbering of substitutions follows the chain as printed. Values belong to the binder of their own block, whether it stands above or below them.

What was measured:
[1] = biological target: T1, CD19-Fc peptide (R&D, Minneapolis, Minn.) (UniProt P15391 20-291); assay: flow cytometry of CAR-transduced primary human T cells stained with CD19-Fc then anti Fc-AF647; untransduced T cells set as 0%
T1 construct: Bought reagent; also called recombinant CD19-Fc peptide; not shown: Fc part; bought reagent, detected with anti-human Fc F(ab')2-AF647
T1 sequence (looked up): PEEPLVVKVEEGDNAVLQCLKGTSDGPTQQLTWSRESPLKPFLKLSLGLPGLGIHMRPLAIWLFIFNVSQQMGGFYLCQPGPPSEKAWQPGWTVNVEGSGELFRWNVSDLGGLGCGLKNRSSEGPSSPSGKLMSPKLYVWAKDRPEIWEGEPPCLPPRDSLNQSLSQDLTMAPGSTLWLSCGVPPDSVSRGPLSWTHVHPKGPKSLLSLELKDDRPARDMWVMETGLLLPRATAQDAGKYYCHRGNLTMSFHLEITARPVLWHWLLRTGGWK
Description: FIG. 3 depicts anti-CD19 CAR surface expression in primary human T cells. CAR T cells redirected to CD19 tumor antigen via the use of ScFv domains (as listed in each panel) were generated by lentiviral transduction with CAR expression constructs. CART detection was performed by flow cytometry. T cells were washed twice in cold PBS-EDTA buffer and stained with CD19-Fc peptide followed by anti Fc-AF647 reagent. At least 20,000 cells were acquired for each analysis. Cells were gated based on forward scatter and side scatter, singlet discrimination, and 7AAD negativity so that only viable cells were analyzed. Data were acquired on MACSQuant 10 flow cytometer in the APC channel. UTD, un-transduced negative control cells. The marker in each panel identifies the CAR-expressing population, and are listed as percent of total transduced T cells analyzed.
For cell staining, half a million CAR T transduced cells were harvested from culture, washed two times in cold AutoMACS buffer supplemented with 0.5% bovine serum albumin (Miltenyi Biotec), and CAR surface expression detected by staining with CD19-Fc peptide (R&D, Minneapolis, Minn.) followed by anti Fc-AF647 conjugate (Jackson ImmunoResearch, West Grove, Pa.). Non-transduced cells were used as negative controls. Dead cells in all studies were excluded by 7AAD staining (BD Biosciences, San Jose, Calif.). Cells were washed twice and resuspended in 200 ul Staining Buffer before quantitative analysis by flow cytometry. Flow cytometric analysis was performed on a MACSQuant®10 Analyzer (Miltenyi Biotec), and data plots were generated using FlowJo software (Ashland, Oreg.).
T cells were activated on culture Day 0 with TransAct T cell reagent (active engagement of CD3 and CD28 antigens, Miltenyi Biotec, Inc.) in the presence of IL-2 as described in Materials and Methods. On culture Day 8-10, expression of anti-CD19 CARs on T cell surface was detected by CD19-Fc peptide followed by anti Fc-AF647 and analyzed by flow cytometry.

[2] = biological target: T2, recombinant human CD19 (labeled CD19) (human, UniProt P15391 20-291, limits assumed, fluorescent label, kind and site not stated); assay: flow cytometry of yeast-displayed scFv titrated with decreasing amounts of labeled CD19
T2 construct: The antigen titrated on yeast is only called 'labeled CD19'; also called fluorescently tagged antigen
T2 sequence (looked up): T1 sequence (looked up)
Description: To increase the affinity of m19217, a yeast-display m19217 mutant scFv library was created by using error-prone PCR to create random point mutations in scFv gene sequences. After electroporation, the resulting mutant library was then grown overnight at 30° C. for 16 hours in SDCAA medium and then switched into SGCAA medium at 30° C. for another 16 hours. The mutant library was then sorted through MACS (immunomagentic column, Miltenyi Biotec) with CD19-Fc as the capture antigen to downsize the library and to increase the population of mutants that could bind to CD19-Fc. The strongest binders were then selected by double staining the pools with Anti-c-Myc-Alexa 488 and CD19-Fc/Anti-Hu-Fc and selecting for the binders that had the highest binding affinities as well as c-Myc expression levels. […] Binidng affinities were estimated by flow cytometry of yeast pools using decreasing amounts of labeled CD19.

B1: LTG2050 (LP-M19217-CD8 TM-41BB-CD3 zeta) CAR (other)
chain: EVQLVQSGAEVKKPGASVKVSCKASGYTFTSYYMHWVRQAPGQGLEWMGIINPSGGSTSYAQKFQGRVTMTRDTSTSTVYMELSSLRSEDTAVYYCARSDRGITATDAFDIWGQGTMVTVSSGGGGSGGGGSGGGGSQSVLTQPPSVSVAPGQTAKITCGGSDIGNKNVHWYQQKPGQAPVLVVYDDYDRPSGIPERFSGSNSGDAATLTISTVEVGDEADYFCQVWDSSGDPYWVFGGGTQLTVLGAAATTTPAPRPPTPAPTIASQPLSLRPEACRPAAGGAVHTRGLDFACDIYIWAPLAGTCGVLLLSLVITLYCKRGRKKLLYIFKQPFMRPVQTTQEEDGCSCRFPEEEEGGCELRVKFSRSADAPAYQQGQNQLYNELNLGRREEYDVLDKRRGRDPEMGGKPRRKNPQEGLYNELQKDKMAEAYSEIGMKGERRRGKGHDGLYQGLSTATKDTYDALHMQALPPR
notes: Chimeric antigen receptor on the surface of transduced primary human T cells; also called ScFv1-CD8 TM-41BB-CD3 zeta
CAR expression level (percent of transduced T cells stained by CD19-Fc) [1]: 46%

B2: LTG2068 (LP-M19217-23-CD8 TM-41BB-CD3 zeta) CAR (other)
chain: B1 chain with S31G, M48I, I50L, A61E, T69A, N166D, S229G, S230I
notes: Chimeric antigen receptor on the surface of transduced primary human T cells; also called ScFv5-CD8TM-4-1BB-CD3 zeta
CAR expression level (percent of transduced T cells stained by CD19-Fc) [1]: 54%

B3: LTG2071 (LP-M19217-40-CD8 TM-41BB-CD3 zeta) CAR (other)
chain: B1 chain with K13R, E46V, I50L, I157T, F223V, S229G
notes: Chimeric antigen receptor on the surface of transduced primary human T cells; also called ScFv8-CD8TM-4-1BB-CD3 zeta
CAR expression level (percent of transduced T cells stained by CD19-Fc) [1]: 21%

B4: LTG2067 (LP-M19217-7-CD8 TM-41BB-CD3 zeta) CAR (other)
chain: B1 chain with K12N, I50M, A105S, V149L, D189N, A206S, S229G
notes: Chimeric antigen receptor on the surface of transduced primary human T cells; also called ScFv4-CD8TM-4-1BB-CD3 zeta
CAR expression level (percent of transduced T cells stained by CD19-Fc) [1]: 81%

B5: LTG2065 (LP-M19217-1-CD8 TM-41BB-CD3 zeta) CAR (other)
chain: B1 chain with I50L, Q153R, T154M, S229G, V236M
notes: Chimeric antigen receptor on the surface of transduced primary human T cells; also called ScFv2-CD8TM-4-1BB-CD3 zeta
CAR expression level (percent of transduced T cells stained by CD19-Fc) [1]: 64%

B6: LTG2066 (LP-M19217-2-CD8 TM-41BB-CD3 zeta) CAR (other)
chain: B1 chain with L45F, I50L, G56S, S85N, S148P, T158I, S229G
notes: Chimeric antigen receptor on the surface of transduced primary human T cells; also called ScFv3-CD8TM-4-1BB-CD3 zeta
CAR expression level (percent of transduced T cells stained by CD19-Fc) [1]: 21%

B7: LTG2070 (LP-M19217-38-CD8 TM-41BB-CD3 zeta) CAR (other)
chain: B1 chain with K13R, Q43R, I50L, K63E, T74M, T104S, T154M, D189N, S229G, V245D
notes: Chimeric antigen receptor on the surface of transduced primary human T cells; also called ScFv7-CD8TM-4-1BB-CD3 zeta
CAR expression level (percent of transduced T cells stained by CD19-Fc) [1]: 47%

B8: LTG2069 (LP-M19217-29-CD8 TM-41BB-CD3 zeta) CAR (other)
chain: B1 chain with I50M, V169A, P195S, S229G, Y234F
notes: Chimeric antigen receptor on the surface of transduced primary human T cells; also called ScFv6-CD8TM-4-1BB-CD3 zeta
CAR expression level (percent of transduced T cells stained by CD19-Fc) [1]: 68%

B9: human anti-CD19 ScFv binder M19217 (scFv)
scFv: EVQLVQSGAEVKKPGASVKVSCKASGYTFTSYYMHWVRQAPGQGLEWMGIINPSGGSTSYAQKFQGRVTMTRDTSTSTVYMELSSLRSEDTAVYYCARSDRGITATDAFDIWGQGTMVTVSSGGGGSGGGGSGGGGSQSVLTQPPSVSVAPGQTAKITCGGSDIGNKNVHWYQQKPGQAPVLVVYDDYDRPSGIPERFSGSNSGDAATLTISTVEVGDEADYFCQVWDSSGDPYWVFGGGTQLTVLG
notes: also called ScFv1; founder clone
EC50 [2]: 0.5 µg/mL

B12: human anti-CD19 ScFv binder M19217-1 (scFv)
scFv: B9 scFv with I50L, Q153R, T154M, S229G, V236M
notes: also called ScFv2
EC50 [2]: < 0.01 µg/mL

Now from value to binder:

EC50 [2]: < 0.01 µg/mL
B10: human anti-CD19 ScFv binder M19217-40 (scFv)
scFv: B9 scFv with K13R, E46V, I50L, I157T, F223V, S229G
notes: also called ScFv8

EC50 [2]: < 0.01 µg/mL
B11: human anti-CD19 ScFv binder M19217-23 (scFv)
scFv: B9 scFv with S31G, M48I, I50L, A61E, T69A, N166D, S229G, S230I
notes: also called ScFv5

EC50 [2]: < 0.01 µg/mL
B13: human anti-CD19 ScFv binder M19217-7 (scFv)
scFv: B9 scFv with K12N, I50M, A105S, V149L, D189N, A206S, S229G
notes: also called ScFv4

EC50 [2]: < 0.01 µg/mL
B14: human anti-CD19 ScFv binder M19217-2 (scFv)
scFv: B9 scFv with L45F, I50L, G56S, S85N, S148P, T158I, S229G
notes: also called ScFv3

EC50 [2]: < 0.01 µg/mL
B15: human anti-CD19 ScFv binder M19217-29 (scFv)
scFv: B9 scFv with I50M, V169A, P195S, S229G, Y234F
notes: also called ScFv6

EC50 [2]: < 0.01 µg/mL
B16: human anti-CD19 ScFv binder M19217-38 (scFv)
scFv: B9 scFv with K13R, Q43R, I50L, K63E, T74M, T104S, T154M, D189N, S229G, V245D
notes: also called ScFv7
